Changes are numbered by the printed parent chain. In names and notes the source's numbering stands. Entries after “also recorded” stand apart in the source; their conditions may differ.
Columns and labels:
[1] = system: K3-CHO and Park8-SH-SY5Y cells expressing human Parkin; assay: Parkin cleavage during cellular apoptosis, induction verified by PARP immunoblot, in Parkin expressing cell lines; assay type: cell-based
Text: Parkin cleavage during cellular apoptosis. […] Lanes 1-4, 6 were probed with T160, lane 5 with PAR-N1 and lane 7 with PAR-C1. The molecular weight is indicated to the left for Parkin (51 kDa) and the Parkin peptides (38 kDa and 11,5 kDa, respectively). The induction of apoptosis was verified biochemically by testing the binding of the same membranes with the mouse monoclonal poly-ADP-ribose (PARP) antibody 66401 A (Pharmigen). […] The generation of the 86 kDa PARP fragment is a recognised marker for apoptosis associated proteolysis.
The stably transfected Parkin expressing cell lines, K3-CHO (FIG. 3, lanes 1-5) and Park8-SH-SY5Y (FIG. 3, lanes 6, 7) were extracted and prepared for immunoblotting as described in example 2. […] FIG. 3, lanes 1-4, 6 were probed with T160, lane 5 with PAR-N1 and lane 7 with PAR-C1 antibodies. The molecular weight is indicated to the left for Parkin (51 kDa) and the Parkin peptides (38 kDa and 11,5 kDa, respectively). […]

[2] = system: apoptosis-associated Parkin cleavage in K3 CHO cells expressing human Parkin; assay: Caspase inhibitors on okadaic acid-induced, apoptosis-associated Parkin cleavage in K3 CHO cells (T160 immunoblot); assay type: cell-based, Chinese hamster; settings: 10 microM inhibitor, 200 nM okadaic acid for 16 h
Method: K3 CHO cells were treated with 200 nM okadaic acid for 16 h (lanes 2-4) in the presence of 10 microM of the caspase inhibitors YVAD-chloromethylketone (lane 3) and DEVD-chloromethylketone (lane 4). The control cells treated with the DMSO used for solubilising the caspase inhibitors are shown in lane 2. Lane 1 represents non-treated control cells. […] Similar data was obtained in the Park8 SH-SY5Y cells.
The parental cell lines and the Parkin expressing cell lines were extracted in 8 M urea, 1% Triton X 100.20 microgram protein was supplemented to 2% sodium dodecylsulphate, 20 mM dithioerythreitol, 20 mM Tris, pH 6.5, 20% glycerol, heated to 95° C. for 5 min, whereafter the mixture was resolved by 10-20% gradient sodium dodecylsulphate polyacrylamide gelelectrophoresis. The proteins in the gel were electroblotted onto a nitrocellulose membrane and non-specific protein binding was blocked by incubating the membrane in block solution (20 mM Tris, pH 7.4, 130 mM NaCl, 0.5% Triton X100, 5% skimmed milk powder) for 2 hours. The membrane was subsequently incubated with primary antibody (PAR-N1, PAR-C1 and T160 diluted 1/500 in block solution) for 2 hours, rinsed in 20 mM Tris, pH 7.4, 130 mM NaCl, 0.5% Triton X100 and incubated with a second antibody (horse radish peroxidase conjugated swine anti rabbit serum) for 1 hour and rinsed. The bound antibody was then visualised by chemilumenescense according to the manufacturers recommendation (ECL, Amersham Pharmacia Biotech). FIG. 2 panel B, lanes 1 and 5 represent the non-transfected CHO and SH-SY5Y cell lines, respectively. FIG. 2, panel B, lanes 24 represents Parkin expressing CHO cells K3 and lane 6 represents the Parkin expressing SH-SY5Y cell Park 8. Lanes 1, 2, 5 and 6 were incubated with T160, lane 3 with PAR-Ni and lane 4 with PAR-C1. The molecular size marker is indicated to the left in kDa.
K3-CHO cells were treated with 200 nM okadaic acid for 16 h prior to extraction and processing for T160 immunoblot as described in example 2. […]

[3] = system: apoptosis-associated (caspase) cleavage of human Parkin; assay: Site directed mutagenesis of Parkin Asp residues: apoptosis-associated cleavage in stably transfected CHO and SH-SY5Y cell lines (T160 immunoblot); assay type: cell-based; settings: 200 nanoM okadaic acid for 16 h
Text: Site directed mutagenesis of […] 126 in parkin to a glutamate residue reduce the apoptosis associated cleavage of parkin. Caspases are proteinases that always cleave after an Asp residue and FIG. 3 indicated the cleavage takes place within the N-terminal 150 amino acid residues. We mutagenised the parkin expression vector to express human parkin where the Asp in the positions 86 plus 87,106, 115, 126 and 130 were substituted with and Glu. CHO and SHSY5Y cell lines were stably transfected with the expression vectors and used for testing the effect of the mutations on apoptosis-associated parkin cleavage. These cells and the cell lines expressing the normal Parkin were treated with 200 nanoM okadaic acid for 16 h and extracted for T160 immunoblotting. The CHO cell lines are represented in lanes 1-6 and the SH-SY5Y cell lines in lanes 7-12. Wild type Parkin is represented in lanes 1, 2, 7, 8; D126E in lanes 3, 4, 9, 10; D130E in lanes 5, 6, 11, 12. Lanes 1, 3, 5, 7, 9, 11 represent untreated cells and lanes 2, 4, 6, 8, 10, 12 represent okadaic treated cells. The positions of the 51 kDa and 38 kDa Parkin proteins are indicated by the upper and lower left arrows.
Caspases are proteinases that always cleave after an Asp residue. Cell lines were generated where Asp residues were changed to Glu residues to test if this amino acid position might represent the caspase cleavage sites. The Parkin expression vector used for generating the Parkin expressing K3 CHO and Park8 SH-SY5Y cell lines was changed by PCR mediated site directed mutagenesis so the nucleotide No.479 was changed from a cytosine to an adenine (ParkinD126E). The cDNA encoding Parkin was kindly provided by Dr. Mizuno, Juntendo University School of Medicine, Japan. The Parkin cDNA was PCR amplified using the primers: […]
The amplified Parkin cDNA was cloned into the Nhe I and EcoR I site of the pcDNA3.1/Zeo(−) vector and the Parkin cDNA sequence was checked by sequencing. To prepare the D126E mutant, the inventors performed site-directed mutagenesis using the Quickchange Mutagenesis Kit (Stratagene) according to the manufactures instructions. Complementary strands of the oligonucleotide: 5′-[…]-3′ were used for preparing the D126E mutated construct. Parkin vectors containing Parkin mutated for D130E and DD86, 87EE were constructed by analogous techniques. This vector was then transfected into SH-SYSY or CHO cells using FUGENE6 (Boehringer Mannheim) and stably transfected cell lines were selected using 25 microgram Zeocinl ml medium (SH-SY5Y cells) or 300 microgram Zeocin/ml medium (CHO cells). The sequences of the vectors were verified by DNA sequencing. The expression vectors were used to generate the stably transfected DD86, 87EE, D126E and D130E CHO and SH-SY5Y cell lines expressing Parkin protein with the indicated substitutions of amino acids. These cells and the cell lines expressing the normal Parkin were treated with 200 nanoM okadaic acid for 16 h and extracted for T160 immunoblotting. The CHO cell lines are represented in lanes FIG. 5, 1-6 and the SH-SY5Y cell lines in lanes 7-12. Wild type Parkin is represented in lanes 1, 2, 7, 8; D126E in lanes 3, 4, 9, 10; D130E in lanes 5, 6, 11, 12. Lanes 1, 3, 5, 7, 9, 11 represent untreated cells and lanes 2, 4, 6, 8, 10, 12 represent okadaic treated cells. The positions of the 51 kDa and 38 kDa Parkin proteins are indicated by the upper and lower left arrows.

[4] = system: CHO and SH-SY5Y cell lines; assay: Cytoprotection against mercaptoethanol-induced unfolded protein stress (DAPI count of dead cells); assay type: cell-based; settings: 3 mM mercaptoethanol for 24h
Method: Mercaptoethanol is a known inducer of unfolded protein stress by inhibiting the normal formation of disulfide bonds in the endoplasmic reticulum.
CHO and SH-SY5Y cell lines were cultured expressing wild type Parkin, D126E Parkin and an empty vector with 3 mM mercaptoethanol for 24h. They were stained with DNA binding fluorescent dye DAPI and fixed in ice cold methanol prior to drying.

[5] = system: CHO and SH-SY5Y cell lines; settings: cell death induced by 3 mM mercaptoethanol; Imai et al. 2000, FIG. 4A; cited from earlier work

**Q.** For `CC[C@@]1(O)C(=O)OCc2c1cc1n(c2=O)Cc2cc3ccccc3nc2-1` [campthotecin], which “Induction of apoptosis (generation of caspase 3 generated 86 kDa PARP fragment)” value ([1]; 5 microgram/ml for 30 hours, K3-CHO) is on record?
**A.** 86 kDa fragment was generated

**Q.** With `OCCS` [mercaptoethanol] as the molecule, how does the “Parkin cleavage after D126 following induced cell death” value ([1]; T160 immunoblotting as in example 3) read?
**A.** followed by Parkin cleavage after D126

**Q.** For `C=C1[C@@H](O)[C@@H]2O[C@]3(CC[C@H](/C=C/[C@@H](C)[C@@H]4CC(C)=C[C@@]5(O[C@H](C[C@@](C)(O)C(=O)O)CC[C@H]5O)O4)O3)CC[C@H]2O[C@@H]1[C@@H](O)C[C@H](C)[C@H]1O[C@@]2(CCCCO2)CC[C@H]1C` [okadaic acid], which “Induction of apoptosis (generation of caspase 3 generated 86 kDa PARP fragment)” value ([1]; 200 nM for 16 hours) is on record?
**A.** 86 kDa fragment was generated

**Q.** For DEVD-chloromethylketone, which “Effect on apoptosis-associated Parkin cleavage (51 kDa Parkin to 38 kDa fragment)” value (“Effect” below) [2] is on record?
**A.** abrogate the cleavage; also recorded: cleavage is abrogated

**Q.** With YVAD-chloromethylketone as the molecule, how does the “Effect” value [2] read?
**A.** cleavage is abrogated

**Q.** What about the “Effect” value ([2]; listed as WAD-chloromethylketone) of the same molecule?
**A.** abrogate the cleavage

B1: D126E: human Parkin with Asp 126 substituted by Glu (SEQ ID NO: 4) (protein, listed as Homo sapiens)
chain: MIVFVRFNSSHGFPVEVDSDTSIFQLKEVVAKRQGVPADQLRVIFAGKELRNDWTVQNCDLDQQSIVHIVQRPWRKGQEMNATGGDDPRNAAGGCEREPQSLTRVDLSSSVLPGDSVGLAVILHTESRKDSPPAGSPAGRSIYNSFYVYCKGPCQRVQPGKLRVQCSTCRQATLTLTQGPSCWDDVLIPNRMSGECQSPHCPGTSAEFFFKCGAHPTSDKETSVALHLIATNSRNITCITCTDVRSPVLVFQCNSRHVICLDCFHLYCVTRLNDRQFVHDPQLGYSLPCVAGCPNSLIKELHHFRILGEEQYNRYQQYGAEECVLQMGGVLCPRPGCGAGLLPEPDQRKVTCEGGNGLGCGFAFCRECKEAYHEGECSAVFEASGTTTQAYRVDERAAEQARWEAASKETIKKTTKPCPRCHVPVEKNGGCMHMKCPQPQCRLEWCWNCGCEWNRVCMGDHWFDV
modifications: mat_peptide (1)..() Parkin with a D126E mutation
**Q.** For B1, which “Apoptosis-associated cleavage of mutated Parkin compared to wild type” value [3] is on record?
**A.** abrogated the cleavage; also recorded: drastically reduced parkin cleavage

**Q.** What about the “Survival of cells expressing the Parkin variant compared to wild type Parkin” value [4] of the same molecule?
**A.** enhanced survival

B2: D130E: human Parkin with Asp 130 substituted by Glu (protein)
chain: B1 chain with E126D, D130E, S223P
**Q.** For B2, which “Apoptosis-associated cleavage of mutated Parkin compared to wild type” value [3] is on record?
**A.** no significant effect; also recorded: cleavage as the WT parkin

B3: D105E: human Parkin Asp to Glu mutant (position printed as 105 and 106) (protein)
chain: B1 chain with D106E, E126D, S223P
**Q.** Which “Apoptosis-associated cleavage of mutated Parkin compared to wild type” value [3] does the source give for B3 here?
**A.** cleavage as the WT parkin

B4: Parkin: wild type human Parkin protein (SEQ ID NO: 2) (protein, listed as Homo sapiens)
chain: B1 chain with E126D, S223P
modifications: mat_peptide (1)..() Native Parkin
**Q.** Which “Protection against cell death by Parkin expression” value [5] does the source give for B4 here?
**A.** approximately 50%

B5: D115E: human Parkin with Asp 115 substituted by Glu (protein)
chain: B1 chain with D115E, E126D, S223P
**Q.** Which “Apoptosis-associated cleavage of mutated Parkin compared to wild type” value [3] does the source give for B5 here?
**A.** cleavage as the WT parkin

B6: DD86, 87EE: human Parkin double mutant, Asp 86 and 87 substituted by Glu (protein)
chain: B1 chain with D86E, D87E, E126D, S223P
**Q.** With B6 as the molecule, how does the “Apoptosis-associated cleavage of mutated Parkin compared to wild type” value [3] read?
**A.** no significant effect; also recorded: cleavage as the WT parkin
